T1: biotinylated mouse IL‐27Rα (amino acids 28–224) (mouse, UniProt O70394 28-224, N‐terminal biotinylated in vitro using EZ‐Link Sulfo‐NHS‐SS‐Biotin at pH 6.5)
T1 chain: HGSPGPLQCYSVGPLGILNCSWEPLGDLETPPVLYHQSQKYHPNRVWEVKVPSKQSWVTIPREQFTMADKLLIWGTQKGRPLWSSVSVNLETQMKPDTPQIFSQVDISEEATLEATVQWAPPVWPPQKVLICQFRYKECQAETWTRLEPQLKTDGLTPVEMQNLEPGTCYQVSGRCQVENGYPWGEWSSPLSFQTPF

T2: C‐terminal biotinylated mouse GP130 with biotin acceptor peptide (mouse, UniProt Q00560 23-319, biotin on the biotin acceptor peptide (BirA ligase))
T2 chain: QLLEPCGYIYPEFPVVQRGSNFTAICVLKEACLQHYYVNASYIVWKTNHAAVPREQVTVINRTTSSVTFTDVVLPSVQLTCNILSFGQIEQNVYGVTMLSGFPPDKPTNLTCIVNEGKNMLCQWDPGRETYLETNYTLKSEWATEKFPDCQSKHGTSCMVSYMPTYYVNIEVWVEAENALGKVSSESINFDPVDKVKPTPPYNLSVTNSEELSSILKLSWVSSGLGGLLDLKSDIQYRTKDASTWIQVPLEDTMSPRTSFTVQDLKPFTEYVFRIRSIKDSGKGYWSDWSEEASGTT

T3: C‐terminal biotinylated mouse GP130 with biotin acceptor peptide (mouse, UniProt Q00560 23-319, biotin on the biotin acceptor peptide (BirA ligase))
T3 construct: GP130, murine, amino acids 23–319; also called biotinylated GP130; source: insect cells (pAcGP67‐A vector), purified; biotinylated with BirA ligase
T3 sequence (looked up): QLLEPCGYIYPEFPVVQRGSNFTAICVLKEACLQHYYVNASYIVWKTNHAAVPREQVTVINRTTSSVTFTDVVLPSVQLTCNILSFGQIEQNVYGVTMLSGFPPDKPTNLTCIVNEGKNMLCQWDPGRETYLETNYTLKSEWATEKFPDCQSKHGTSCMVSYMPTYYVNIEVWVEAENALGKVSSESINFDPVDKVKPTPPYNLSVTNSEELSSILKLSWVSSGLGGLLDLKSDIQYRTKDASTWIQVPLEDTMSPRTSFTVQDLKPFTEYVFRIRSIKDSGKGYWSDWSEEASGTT

T4: mouse p28 (IL‐27p28), alone (mouse, UniProt Q8K3I6 29-234)
T4 construct: IL-27 p28 subunit, mouse; source: recombinantly produced
T4 sequence (looked up): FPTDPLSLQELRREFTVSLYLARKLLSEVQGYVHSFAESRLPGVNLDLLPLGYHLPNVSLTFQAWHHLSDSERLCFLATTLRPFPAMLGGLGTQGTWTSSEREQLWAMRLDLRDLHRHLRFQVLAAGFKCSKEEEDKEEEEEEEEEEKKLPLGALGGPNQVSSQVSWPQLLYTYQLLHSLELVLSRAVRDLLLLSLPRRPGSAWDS

B1: murine IL‐27, linker‐connected single‐chain variant (p28 + EBI3) (ligand)
chain: GSYTETALVALSQPRVQCHASRYPVAVDCSWTPLQAPNSTRSTSFIATYRLGVATQQQSQPCLQRSPQASRCTIPDVHLFSTVPYMLNVTAVHPGGASSSLLAFVAERIIKPDPPEGVRLRTAGQRLQVLWHPPASWPFPDIFSLKYRLRYRRRGASHFRQVGPIEATTFTLRNSKPHAKYCIQVSAQDLTDYGKPSDWSLPGQVESAPHKPRGGGGSGGGGSVESGENLYFQGFPTDPLSLQELRREFTVSLYLARKLLSEVQGYVHSFAESRLPGVNLDLLPLGYHLPNVSLTFQAWHHLSDSERLCFLATTLRPFPAMLGGLGTQGTWTSSEREQLWAMRLDLRDLHRHLRFQVLAAGFKCSKEEEDKEEEEEEEEEEKKLPLGALGGPNQVSSQVSWPQLLYTYQLLHSLELVLSRAVRDLLLLSLPRRPGSAWDS
B2: biotinylated mouse IL‐27Rα (amino acids 28–224) (receptor, UniProt O70394 28-224, looked up)
chain: HGSPGPLQCYSVGPLGILNCSWEPLGDLETPPVLYHQSQKYHPNRVWEVKVPSKQSWVTIPREQFTMADKLLIWGTQKGRPLWSSVSVNLETQMKPDTPQIFSQVDISEEATLEATVQWAPPVWPPQKVLICQFRYKECQAETWTRLEPQLKTDGLTPVEMQNLEPGTCYQVSGRCQVENGYPWGEWSSPLSFQTPF
modifications: N‐terminal biotinylated in vitro using EZ‐Link Sulfo‐NHS‐SS‐Biotin at pH 6.5
notes: IL-27 receptor alpha, murine, amino acids 28–224; Same construct as m2, chemically biotinylated for capture on the streptavidin chip; also called biotinylated IL‐27Rα; source: Trichoplusia ni (High Five) cells, baculovirus, secreted; purified (Ni-NTA, SEC); biotinylated in vitro

Columns and labels:
[1] = target: T1, biotinylated mouse IL‐27Rα (amino acids …); test: SPR
[2] = target: T2, C‐terminal biotinylated mouse GP130 …; test: SPR
[3] = target: B2; test: SPR; Biacore T100; biotinylated receptor immobilised on SA chip (~100 RU); IL‐27 flowed, 1:3 dilution series from 100 nM, 30 μl/min; 25°C; 10 mM HEPES, 150 mM NaCl, 0.05% TWEEN‐20, pH 7.2, 0.5% BSA; kinetic 1:1 fit; settings: both partners purified
[4] = target: T3, C‐terminal biotinylated mouse GP130 …; test: as above; settings: both partners purified
[5] = target: T4, mouse p28 (IL‐27p28), alone; test: SPR; Biacore T100; biotinylated receptor immobilised on SA chip (~100 RU); p28 flowed, 1:2 dilution series from 20 μM; 25°C; 10 mM HEPES, 150 mM NaCl, 0.05% TWEEN‐20, pH 7.2, 0.5% BSA; equilibrium analysis; settings: both partners purified

Binder | koff [1] | koff [2] | Kd [3] | Kd [4] | Kd [5]
B1 | 0.001 s⁻¹ | 0.02 s⁻¹ | 0.28 nM | 2.1 nM | 
B2 |  |  |  |  | 1700 nM

— publication PMC9535766, “Structural insights into the assembly and activation of the IL‐27 signaling complex” (EMBO Reports, 2022)
